Laboratory results: patent publication US20110131028A1, “CELL POPULATION SYSTEM AND PROCESS” (priority 2006, published 2011)

Test system: B cells isolated from spleen
Test: Survival of unstimulated B cells in culture, lognormal time-to-die fit
Assay type: cell-based
Conditions: increasing IL-4 concentration; FIG. 3D
Description: As indicated above, the probability distribution is determined by simulating the decreasing size of a cell population over time in the absence of cell division. For example, when naive T or B lymphocytes are purified from lymphoid tissue and placed in tissue culture without stimulation, they progressively die by apoptosis, apparently from the absence of homeostatic survival signals that are present in vivo. To determine a probability distribution representing probabilities for cell death, small resting B cells from spleen/lymphnode can be placed in culture under different conditions and their viability measured by propidium iodide uptake at step 202. Cell numbers can be counted by reference to beads, as described in Deenick.
At step 204, the two parameters of the lognormal probability distribution, namely the mean μ and standard deviation σ, are determined using a standard fitting procedure (the Matlab fmincon function) that varies μ and σ to obtain the closest match between the corresponding lognormal survival curve (i.e., the simulated ‘survival curve’ representing the decreasing size of the cell population over time, the curve being generated from a lognormal probability distribution representing probabilities for times to die with distribution parameters μ and σ) and the experimental data. […]

B1: IL-4: cytokine that affects B cell viability without stimulating cell division (protein, UniProt P05112 25-153, looked up)
Interleukin-4: HKCDITLQEIIKTLNSLTEQKTLCTELTVTDIFAASKNTTEKETFCRAATVLRQFYSHHEKDTRCLGATAQQFHRHKQLIRFLKRLDRNLWGLAGLNSCPVKEANQSTLENFLERLKTIMREKYSKCSS
B1 was tested, and the “mean time to die μ” value was “increases”.
